Test in all cases: cell-based or functional assay
Assay [1] concerns the target HIV-1 MGRM-AG-002 Env (pseudovirus) (HIV-1).
Assay [2] concerns the target HIV-1 Env of isolate MGRM-D-020 (clade D pseudovirus) (HIV-1).
For assay [3], the target named is HIV-1 MGRM-AE-006 Env (pseudovirus) (HIV-1).
Assay [4] concerns the target HIV-1 Env of isolate MGRM-D-001 (clade D pseudovirus) (HIV-1).
In assay [5] the target is HIV-1 Env of pseudovirus MGRM-G-024 (HIV-1).
The target of assay [6] is HIV-1 Env of isolate TRJ0.58 (Acute), clade B (HIV-1).
The target of assay [7] is HIV-1 isolate 94UG114 envelope glycoprotein (Env), clade D, on pseudovirus (HIV-1).
The target in assay [8] is HIV-1 envelope glycoprotein (Env) of isolate MGRM-C-010 (HIV-1).
Assay [9] addresses HIV-1 Env of pseudovirus MGRM-F1-021 (clade F) (HIV-1).
The target in assay [10] is HIV-1 IAVI-C22 envelope (Env) on pseudovirus (HIV-1).
For assay [11], the target named is HIV-1 Env of isolate MGRM-D-003 (clade D pseudovirus) (HIV-1).
Assay [12] concerns the target HIV-1 MGRM-G-004 Env (pseudovirus) (HIV-1).
Assay [13] has as its target HIV-1 Env of isolate APV_13, clade B (HIV-1).
Assay [14] concerns the target HIV-1 envelope glycoprotein (Env) of isolate MG RM-AG-013 (HIV-1).
Assay [15] concerns the target HIV-1 Env of pseudovirus MGRM-F1-018 (HIV-1).
The target in assay [16] is HIV-1 Env of pseudovirus MGRM-F1-020 (HIV-1).
The target of assay [17] is HIV-1 Env of isolate MGRM-G-015 (subtype G) (HIV-1).
For assay [18], the target named is HIV-1 Env of pseudovirus isolate APV-13 (clade B) (HIV-1).
Assay [19] has as its target HIV-1 Env of isolate 98CN009 (HIV-1).
Assay [20] has as its target HIV-1 Env of isolate MGRM-C-025 (subtype C), on pseudovirus (HIV-1).
The target of assay [21] is HIV-1 Env of isolate MG RM-A-005 (pseudovirus) (HIV-1).
The target in assay [22] is HIV-1 Env of isolate MGRM-G-016 (subtype G) (HIV-1).
In assay [23] the target is HIV-1 Env of isolate MG RM-A-008 (pseudovirus) (HIV-1).
The target of assay [24] is HIV-1 Env of isolate MGRM-AE-002 (pseudovirus) (HIV-1).
Assay [25] has as its target HIV-1 Env of isolate MGRM-C-015 (subtype C), on pseudovirus (HIV-1).
In assay [26] the target is HIV-1 Env of isolate MGRM-A-005 (pseudovirus) (HIV-1).
Assay [27] addresses HIV-1 Env of pseudovirus isolate MGRM-C-024 (clade C) (HIV-1).
Assay [28] has as its target HIV-1 Env of pseudovirus isolate MGRM-C-028 (clade C) (HIV-1).
Assay [29] addresses HIV-1 Env of isolate MGRM-C-004 (HIV-1).
The target in assay [30] is HIV-1 Env of isolate 92TH021 (subtype AE) (HIV-1).
In assay [31] the target is HIV-1 CMU02 envelope protein (Env) on pseudovirus (HIV-1).
The target of assay [32] is HIV-1 Env of isolate JRFL (HIV-1).
The target of assay [33] is HIV-1 Env of isolate MGRM-D-022 (pseudovirus) (HIV-1).
The target of assay [34] is HIV-1 JR-CSF Env I415A (HIV-1 (isolate JR-CSF)) (UniProt P20871).
Assay [35] deals with HIV-1 Env of isolate 92RW008 (pseudovirus) (HIV-1).
Assay [36] has as its target HIV-1 92UG005 Env (HIV-1).

A value given as a limit tells only on which side of the number the result lay.

As a reminder, the IC50 is the concentration that gives 50% inhibition.

On to 2G12 (antibody), for which the IC50 (µg/ml), pseudovirus neutralization in assay [1] is 0.54 µg/mL; in assay [3] it was > 50 µg/mL; in assay [5] it was > 50 µg/mL; in assay [6], > 50 µg/mL; in assay [7] it was 13.9 µg/mL; in [8], > 50 µg/mL. Further, the IC50 (µg/ml), pseudovirus neutralization in assay [12] was > 50 µg/mL; in assay [13], 9.24 µg/mL. Also, the IC50, pseudovirus neutralization in assay [2], in assay [4] and in assay [11] was > 50 µg/mL throughout. The substance also had an IC50 in assay [9] of 14.1 µg/mL. The neutralization IC50 in assay [10] is > 50 µg/mL.

Regarding b12 (antibody), the IC50 (µg/ml), pseudovirus neutralization in assay [1] is 0.89 µg/mL; in assay [3], > 50 µg/mL; in assay [5] it was 2.38 µg/mL; in assay [6] it was > 50 µg/mL; in assay [7], > 50 µg/mL; in assay [8], > 50 µg/mL. In addition, the IC50 (µg/ml), pseudovirus neutralization in [12] and in assay [13] was > 50 µg/mL throughout. The IC50, pseudovirus neutralization in assay [2], in [4] and in [11] was > 50 µg/mL in each case. In addition, the half-inhibitory concentration (IC50) in assay [9] was > 50 µg/mL. In assay [10], the neutralization IC50 stood at 3.6 µg/mL.

PGT-142 (4995_E20) (antibody) registered an IC50 in [14] of 21.7 µg/mL. Also, the figures for the IC50, pseudovirus neutralization in [15] and in assay [16] were 0.404 µg/mL and 0.824 µg/mL, respectively.

For VRC01 (antibody), the IC50 (µg/mL), pseudovirus neutralization in [17] amounted to 0.548 µg/mL; in assay [19] it was 0.346 µg/mL; in assay [22] it was 0.063 µg/mL. For the same substance, the figures for the IC50, pseudovirus neutralization in assay [18], in assay [15] and in assay [16] were 0.657 µg/mL, 0.032 µg/mL and 1.89 µg/mL, respectively. The substance also showed an IC50 in [14] of 0.197 µg/mL. Besides, the figures for the IC50, single-round pseudovirus neutralization in assay [20] and in assay [25] were 2.36 µg/mL and 1.57 µg/mL, respectively. Also, the IC50 (µg/mL), single-round pseudovirus neutralization is 0.095 µg/mL in assay [21], 0.303 µg/mL in assay [23] and 0.217 µg/mL in assay [24].

In the case of PGT-143 (4980_N08) (antibody), the IC50 in [14] was > 50 µg/mL. Further, the IC50, pseudovirus neutralization stood at 0.701 µg/mL in assay [15] and 0.98 µg/mL in assay [16].

As to 4970_K22 (PGT-144) (antibody), the IC50 (µg/mL), pseudovirus neutralization in [17], in assay [19] and in assay [22] was > 50 µg/mL in each case. The IC50, pseudovirus neutralization in assay [18] was > 50 µg/mL. Further, the IC50, single-round pseudovirus neutralization stood at 17.6 µg/mL in assay [20] and 0.236 µg/mL in assay [25]. The IC50 (µg/mL), single-round pseudovirus neutralization in assay [21] is 18.6 µg/mL; in assay [23] it was > 50 µg/mL; in [24] it was > 50 µg/mL.

Regarding PGT-145 (4995_P16) (antibody), the IC50 in assay [14] amounted to 14.4 µg/mL. Further, the IC50, pseudovirus neutralization in assay [15] came to 1.02 µg/mL; in assay [16] it was 0.816 µg/mL.

On to 4995_E20 (PGT-142) (antibody), for which the figures for the IC50 (µg/mL), pseudovirus neutralization in assay [17], in assay [19] and in [22] were > 50 µg/mL, 4 µg/mL and 8.17 µg/mL, respectively. The IC50, pseudovirus neutralization in assay [18] was > 50 µg/mL. For the same substance, the IC50, single-round pseudovirus neutralization in assay [20] was 0.183 µg/mL; in assay [25], 0.038 µg/mL. Further, the IC50 (µg/mL), single-round pseudovirus neutralization in [21] is 9.7 µg/mL; in [23] it was > 50 µg/mL; in assay [24], > 50 µg/mL.

As to 5343_B08 (PGT-135) (antibody), the IC50 (µg/mL), pseudovirus neutralization in [26] was > 50 µg/mL; in [29], 0.046 µg/mL; in assay [32], > 50 µg/mL; in [33], > 50 µg/mL; in assay [35], 1.42 µg/mL. In addition, the IC50, pseudovirus neutralization is > 50 µg/mL in [27], 1.47 µg/mL in assay [28] and > 50 µg/mL in [30]. The IC50 (ug/mL), pseudovirus neutralization in assay [31] is > 10 µg/mL. The substance further registered a Fold IC50 increase relative to wild-type (pseudovirus neutralization) in assay [34] of 5 fold.

On to 5147_N06 (PGT-130) (antibody), for which the IC50, pseudovirus neutralization was 0.474 µg/mL in [36], > 50 µg/mL in assay [27], > 50 µg/mL in [28] and 0.009 µg/mL in assay [30]. Besides, the IC50 (µg/mL), pseudovirus neutralization in [26] is > 50 µg/mL; in assay [29], 2.76 µg/mL; in [32], 0.046 µg/mL; in [33], > 50 µg/mL; in [35], 0.039 µg/mL. Moreover, the IC50 (ug/mL), pseudovirus neutralization in [31] is > 10 µg/mL. In addition, the Fold IC50 increase relative to wild-type (pseudovirus neutralization) in assay [34] worked out at 0.6 fold.

For the substance 4993_K13 (PGT-141) (antibody), the figures for the IC50 (µg/mL), pseudovirus neutralization in assay [17], in assay [19] and in assay [22] were > 50 µg/mL, 1.28 µg/mL and 4.69 µg/mL, respectively. In addition, in assay [18], the IC50, pseudovirus neutralization is > 50 µg/mL. For the same substance, the IC50, single-round pseudovirus neutralization in assay [20] amounted to 0.247 µg/mL; in assay [25], 0.033 µg/mL. The values for the IC50 (µg/mL), single-round pseudovirus neutralization in assay [21], in assay [23] and in [24] were 11.1 µg/mL, > 50 µg/mL and > 50 µg/mL, respectively.

In the case of PGT-141 (4964_G22; 4993_K13) (antibody), the IC50 in assay [14] was > 50 µg/mL. Moreover, the figures for the IC50, pseudovirus neutralization in assay [15] and in assay [16] were 0.785 µg/mL and 1.15 µg/mL, respectively.

With 4995_P16 (PGT-145) (antibody), the IC50 (µg/mL), pseudovirus neutralization in assay [17] stood at 10.5 µg/mL; in assay [19] it was 0.136 µg/mL; in assay [22], 0.081 µg/mL. The substance also had an IC50, pseudovirus neutralization in assay [18] of 0.337 µg/mL. The IC50, single-round pseudovirus neutralization in assay [20] was 0.044 µg/mL; in assay [25] it was 0.12 µg/mL. Also, the IC50 (µg/mL), single-round pseudovirus neutralization was 0.128 µg/mL in [21], > 50 µg/mL in assay [23] and 1.87 µg/mL in assay [24].

In the case of 4980_N08 (PGT-143) (antibody), the results for the IC50 (µg/mL), pseudovirus neutralization in assay [17], in assay [19] and in assay [22] were > 50 µg/mL, 10.2 µg/mL and 7.6 µg/mL, respectively. Moreover, the IC50, pseudovirus neutralization in [18] is > 50 µg/mL. Besides, the results for the IC50, single-round pseudovirus neutralization in [20] and in [25] were 0.336 µg/mL and 0.085 µg/mL, respectively. Besides, the IC50 (µg/mL), single-round pseudovirus neutralization in assay [21] is 7.48 µg/mL; in [23], > 50 µg/mL; in assay [24], > 50 µg/mL.

As for PGT-144 (4970_K22) (antibody), in assay [14], the IC50 was > 40 µg/mL. Further, the IC50, pseudovirus neutralization was > 50 µg/mL in assay [15] and 8.93 µg/mL in [16].

(Values after US20240132578A1.)
